Results reported in patent US20200385479A1 (LYVGEN BIOPHARMA, published 2020).
Numbering of substitutions follows the chain as printed. Names may count otherwise. Each block holds one binder with its values, some of them ahead of it.

Key:
[1] = molecular target: T1, CD137 antigen (Octet antigen binding assay) (UniProt Q07011 24-186, limits assumed); test: BLI, Octet Red 96, antibody on anti-human Fc (AHC) biosensors, 1:1 model
T1 construct: also called 4-1BB; TNFRSF9
Protocol: The chimeric antibodies were tested in an antigen binding assay on Octet Red 96 to estimate binding kinetics. Antibodies were loaded onto anti-human Fc (AHC) biosensors. Loaded sensors were dipped into a serial dilution of each […] (300 nM, 1:3 down, 7 points) in assay buffer (PBS with 0.1% BSA, 0.02% Tween-20 (pH 7.2)).

[2] = molecular target: T2, human CD137-His tag protein; test: ELISA, plate coated with human CD137-His at 1 ug/ml, anti-human IgG-HRP, A450
T2 construct: It differs from the cell-surface CD137 and the Octet antigen; also called Sino Biological Inc. Cat #10377-H08H-100; not shown: C-terminal His tag of the vendor's product (Sino Biological Cat #10377-H08H-100)
T2 sequence (chain, as listed by the source limits assumed): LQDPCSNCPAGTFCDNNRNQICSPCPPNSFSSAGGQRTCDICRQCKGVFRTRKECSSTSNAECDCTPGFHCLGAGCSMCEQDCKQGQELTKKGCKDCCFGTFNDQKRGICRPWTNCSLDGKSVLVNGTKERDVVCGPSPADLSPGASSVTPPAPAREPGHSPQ
Protocol: CD137 protein (human CD137-His tag protein (Sino Biological Inc. Cat #10377-H08H-100) or rhesus monkey CD137-His (Sino Biological Inc. Cat #90305-K08H-100)) was diluted in PBS to 1 ug/ml and used to coat an ELISA plate (Corning, Cat #9018, high binding) at a concentration of 50 ul/well. The plate was incubated overnight at 4° C. The plate was then decanted and washed with PBS-T, and 200 ul/well assay diluent (1×PBS/1% BSA/0.05% Tween-20/0.05% proclin 300) was added. After a 3 hour incubation at room temperature, the plate was washed with PBS-T three times. The testing antibodies were diluted in assay diluent to 0, 0.000003, 0.00003, 0.0003, 0.003, 0.03, and 0.3 ug/ml or approximately 0, 0.00002, 0.0002, 0.002, 0.02, 0.2 and 2 nM and then added to the plate (50 ul/well). The plate was incubated for one hour at 37° C. and then washed three times with PBS-T. Anti-human IgG-HRP conjugate (Bethyl Cat #A80-319P) at a 1:10,000 dilution was added to the plate (100 ul/well). The plate was incubated for 0.5 hour at 37° C., followed by washing with PBS-T three times. The TMB substrate solution was added (100 ul/well). The color was allowed to develop for 8 minutes before it was stopped with 100 ul/well 2N H₂SO₄. Absorbance at 450 nm was determined with an ELISA reader.

- Kd [1]: 2.1 nM
- koff [1]: 0.00034 s⁻¹
- kon [1]: 160000 M⁻¹ s⁻¹
- EC50 (read off the curve) [2]: ~0.005 nM
B1: LYV402 (26B3-IgG4) (antibody, V domains shown)
VH: EVKLLESGGGLVQPGGSLKLSCAASGFDFSRYWMSWVRQAPGKGLEWIGEINPDSNPINYTPSLKDKFIISRDNAKNTLYLQMSKVRSEDTALYYCARDGSSSRYFDVWGAGTTVTVSS
VL: DIVMTQSPATLSVTPGDRVSLSCRASQSISDYLHWYQQKSHESPRLLIKYVSQSISGIPSRFSGSGSGSDFTLSINSVEPEDVGVYYCQNGHSFPPTFGGGTKLEIKR
notes: Chimeric antibody, human IgG4 S228P / human kappa; also called 26B3b in hG4SP / human kappa

- Kd [1]: 5.8 nM
- koff [1]: 0.0016 s⁻¹
- kon [1]: 280000 M⁻¹ s⁻¹
B2: LYV372 (23D2-IgG4) (antibody, V domains shown)
VH: QVQLQQSGAELVRPGSSVKISCKASGYAFSIYWMNWVKQRPGQGLEWIGQIYPGDGYTNYNGKFKGKATLTADKSSSTAYMQLSSLTSEDSAVYFCARGQLGLDGYWGQGTTLTVSS
VL: QIVLTQSPTIMSASPGEKVTMTCSASSSVSYIYWYQQKPGSSPRLLIYDTSNLASGVPVRFSGSGSGTSYSLTISRMEAEDAATYYCQQWNIYPYTFGGGTKLEIKR
notes: Chimeric antibody, human IgG4 S228P / human kappa; also called 23D2 in human IgG4S; 23D2b in human Kappa

- Kd [1]: 8.2 nM
- koff [1]: 0.0023 s⁻¹
- kon [1]: 280000 M⁻¹ s⁻¹
- EC50 (read off the curve) [2]: 0.01 to 0.02 nM
B3: LYV375 (22F2-IgG4) (antibody, V domains shown)
VH: B2 VH with Q1E, Q3K, Q5V, Q6E, I31L
VL: B2 VL with T9A
notes: Chimeric antibody, human IgG4 S228P / human kappa; also called 22F2 in human IgG4SP / human Kappa

- Kd [1]: 3.8 nM
- koff [1]: 0.0011 s⁻¹
- kon [1]: 280000 M⁻¹ s⁻¹
B4: LYV371 (11E10-IgG4) (antibody, V domains shown)
VH: QVQLQQSGAELVRPGASVTLSCKASGYTFAGFEMHWIKQTPVHGLGWIGAIDPKTGGTDYNQKFKDKALLTADKSSNTAYMELRSLTSEDSAVYYCTRDLGYFDVWGTGTTVTVSS
VL: DIQMTQTTSSLSASLGDRVTISCRASQDIRSNLNWYQQKPDGTVKLLIYYTSRLHSGVPSRFSGSGSGTDYSLTISNLEQEDIATYFCQQSEKLPRTFGGGTKLEIRR
notes: Chimeric antibody, human IgG4 S228P / human kappa; also called 11E10 in human IgG4SP / human Kappa

- Kd [1]: 5.3 nM
- koff [1]: 0.0014 s⁻¹
- kon [1]: 260000 M⁻¹ s⁻¹
- EC50 (read off the curve) [2]: ~0.04 nM
B5: LYV390 (30C11-IgG4) (antibody, V domains shown)
VH: QIQLVQSGPELKKPGESVKISCKASGYTFTDYAMHWVKQAPGKALKWMGLINTYTGKPTYVDDLKGRFVFSLEASASTAKLQISNLKNEDTAIYFCARYYHDGTYYGWFANWGQGTLVTVSS
VL: DTVLTQSPALAVSPGERVTVSCGATESVSTALNWYQQKPGQQPRLLIYGASNLESGVPARFSGSGSGTDFTLSIDPVEADDTATYFCQQTWNDPLTFGSGTKLEIKR
notes: Chimeric antibody, human IgG4 S228P / human kappa; also called 30C11 in hG4SP / human kappa

- Kd [1]: 5.7 nM
- koff [1]: 0.001 s⁻¹
- kon [1]: 180000 M⁻¹ s⁻¹
- binding result [2]: binds
B6: LYV370 (20A12-IgG4) (antibody, V domains shown)
VH: QIQLVQSGPELKKPGETVKISCKASGYTFTTYGMSWVKQAPGKGLKWMGWINTYSGVPTYADDFKGRFAFSLETSASTAYLQINNLKNEDMAIYFCARGYGSPDYWGQGTTLTVSS
VL: QIVLTQSPAIMSASPGEKVTMTCSASSSVSYMNWYQQKSGTSPKRWIFDTSKLASGVPARFSGSGSGTSYSLTISSMEAEDAATYYCQQWSGNPPISTFGSGTKLEIKR
notes: Chimeric antibody: hybridoma variable domains on human IgG4 constant region with hinge S228P (EU numbering) and human kappa constant region; S228P is already in the full chain entry; also called 20A12 in human IgG4SP / human kappa
